The DeepSol protein solubility set

Experiment: soluble on expression in E. coli; label from the status in PepcDB or PDB records

Sequence	soluble on expression in E. coli
EGSIGNGLDLTGILFGNIDSEGRLLQDDDGEGRGGTGFDAELRENIGSLSKLGLDSMLLEVIDLKEA	soluble
EIAPLFTIENTVEEVEGMRPYTPLELAGRDIYVREGCYACHSQMIRTLRSDVERYGHYSLAAESMYDHPFQWGSKRTGPDLARIGGKYSDDWHVAHLEDPRALVPGSVMPGYAFLSATRLDTGHLPAALEALRRAGVPYTDAQIATAEQAAGWQADAEQAYESELQELFGDNVQLRDFDGRPGELTEMDALVAYLQVLGT	not soluble
EIAVIGAAGKTGAAVVAALEGLDDVRRVVHTARRAGDFAVDLETGAGLDKALSGCRGVYFIAPNVHPDEPALLRNTMRAAASVGVDHFVYHSVAWPYTPLMPHHVDKARCEDELRTFGGLRWTVLQPCAYAENFGAVLAGTATTVELPYSPDAAFSFVALADVAEVGARVLVEGPDIHHGATYELGGPEALSVRDLCDRAGGPVSVKQVSVDEWMSRHGRDLTDDGRARLSAMFEFYDRYGFL	not soluble
EIKDTYNIGELSPGMTATFEGEVISALPIKEFKRADGSIGKLKSFIVRDETGSIRVTLWDNLTDIDVGRGDYVRVRGYIREGYYGGLECTANYVEILKKGEKIES	soluble
EIRDTKKDLKESEMRLSLALDASNMAAWHIDMDTRHIAYSDTLAVIFGYPKDTTLVWSDLVAQIYPEDMHLYQTARQQMETTGLYEYEIRIVWPDNSIKWIKTIGKMLLDSDGSQRRMIGITRDIT	not soluble
EITHRTKTRPVKVGPLTIGGNNEVVIQSMTTTKTHDVEATVAEINRLAEAGCQIVRVACPDERAANAIADIKKRISIPLVVDIHFDYKLALKAIEGGADKIRINPGNIGRREKVEAVVKAAKDKGIPI	not soluble
EKFRWFISSEGFLVIGGKDATTNEIVVRKYLEENDLYCHADIWGAPHVVIKDGQKAGEKTIFEACQFAVSMSRAWSEGLYSADAYWVYPNQVKKQAPSGEFLPK	not soluble
ELKPTAPPIFTGRPFVVAWDVPTQDCGPRLKVPLDLNAFDVQASPNEGFVNQNITIFYRDRLGLYPRFDSAGRSVHGGVPQNVSLWAHRKMLQKRVEHYIRTQESAGLAVIDWEDWRPVWVRNWQDKDVYRRLSRQLVASRHPDWPPDRIVKQAQYEFEFAAQQFMLETLRYVKAVRPRHLWGFYLFPDCYNHDYVQNWESYTGRCPDVEVARNDQLAWLWAESTALFPSVYLDETLASSRHGRNFVSFRVQEALRVARTHHANHALPVYVFTRPTYSRRLTGLSEMDLISTIGESAALGAAGVILWGDAGYTTSTETCQYLKDYLTRLLVPYVVNVSWATQYCSRAQCHGHGRCVRRNPSASTFLHLSTNSFRLVPGHAPGEPQLRPVGELSWADIDHLQTHFRCQCYLGWSGEQCQWDHRQAAGG	soluble
ELVMTQTPSSVSEPVGGTVTIKCQASQSISSWLSWYQQKPGQPPKLLIYDASNLASGVPSRFMGSGSGTEYTLTISGVQREDAATYYCLGGYPAASYRTAFGGGTELEIIRTVAAPSVFIFPPSDEQLKSGTASVVCLLNNFYPREAKVQWKVDNALQSGNSQESVTEQDSKDSTYSLSSTLTLSKADYEKHKVYACEVTHQGLSSPVTKSFNRGEC	soluble
ENENRVEALEVRLAFQDELLDALNATVARQQKEIDLLQQQIRLLYQQFRNAQPDDAPGGSLRDDIPPHY	soluble
ENGRYEYIVIGSEAAGVGLVRELTAAGKKVLAVDKSKEKIELLEDEGFDAVIADPTDESFYRSLDLEGVSAVLITGSDDEFNLKILKALRSVSDVYAIVRVSSPKKKEEFEEAGANLVVLVADAVKQAFMDKIKKMETL	not soluble
ENKILKIEKGTSGWGGPLYIKKEGNRNKILSMTAGGIHEVTLKIKELLGCEIVDGFKTGVSDEEVAVVIIDCGGTARCGVYPKKKIPTINVNPVGKTGPLAKFITEEYYVSDVNPNCISVVDGEDMPQKSQENKSENKSSIRKPDNYDEVKSKAQGEYAKKNIILSIGQGAGQVVSKFYDAGRDTIQMVMNN	not soluble
ENLGATVIPASTGNTEKHVRLIRDLGITGIACTPSYALYLAEVVERMGLTKNDINLRIGAFGAEPWTESMRKEIEERLGLKGYNIYGLSEIMGPGVSYECQEQH	not soluble
EPAHGRQHTPCLFCDRLFASAEETFSHCKLEHQFNIDSMVHKHGLEFYGYIKLINFIRLKNPTVEYMNSIYNPVPWEKDEYLKPVLEDDLLLQFDVEDLYEPVSTPFS	soluble
EQAPQYVDETISLSAKTLFGFDKDSLRAEAQDNLKVLAQRLSRTNIQSVRVEGHTDFMGSDKYNQALSERRAYVVANNLVSNGVPVSRISAVGLGESQAQMTQVCEAEVAKLGAKVSKAKKREALIACIEPDRRVDVKIRSIVTRQVVPAHNHHQHLEHHHHHH	soluble
ERGKFAAVFNDITERRLMEDELRRQEQSHRLVLDNIPDIIARFDRELRHLYVSAAITRVTGFPPEHFIGRTNREIGMPDELVDRWDAAINEVFSSGREQRLEFTYQSPRGLRHFETTLIPERGADDSSAAVLVVNHD	not soluble
ERSIGFDGVMYFYSDTEKIRDAAFEAALQDQLEWKIEGLKPYVIPADKTLSDRICREDILRGVTIAANGFYGPQGRRLRLPLKDEDLNRKIQAFDFNGSRITNYEMESSSLAGLAALMGHEAITVCCIIAGRKSEKMNTSYQGSIEGLIDLVLERI	not soluble

Sequence	soluble on expression in E. coli
ERVDEKVFSAGTSIFRGILEKVKAPLMYGDREVWGMARASEDFFFILPVTDDLTPVLFYNRLTNEPCFVSDQGITEYFKFAQEGDYIEVEGSSVFMANLLYYRFFPTRITSYNAPIEGVVSKTGNPAFTIPMLPGVSDCIEISNNRKVFLTNQLGVVNITDGMEPPIIAGVSASYGSSVRVYGHVSQRWDIIGHCYLDIYPTNCYPLSTKPVAGDDEVFVKQQGRQIEIDSNSPIVQVVVYDLEGKSVFRKRMTENA	not soluble
ESSRSAMMYIQELRSGLRDMHLLSCLESLRVSLNNNPVSWVQTFGAEGLASLLDILKRLHDEKEETSGNYDSRNQHEIIRCLKAFMNNKFGIKTMLETEEGILLLVRAMDPAVPNMMIDAAKLLSALCILPQPEDMNERVLEAMTERAEMDEVERFQPLLDGLKSGTSIALKVGCLQLINALITPAEELDFRVHIRSELMRLGLHQVLQELREIENEDMKVQLCVFDEQGDEDFFDLKGRLDDIRMEMDDFGEVFQIILNTVKDSKAEPHFLSILQHLLLVRNDYEARPQYYKLIEECVSQIVLHKNGTDPDFKCRHLQIDIERLVDQMIDKTKVEKSEAKATELEKKLDSELTARHELQVEMKKMENDFEQKLQDLQGEKDALDS	soluble
ETDKKGENAPDTKRIKETLEKFSLENMRYVGILKSGQKVSGFIEAEGYVYTVGVGNYLGQNYGRIESITDDSIVLNELIEDSTGNWVSRKAELLLNSSDKNTEQAAAPAAEQN	soluble
ETGGERQLSPEKSEIWGPGLKADVVLPARYFYIQAVDTSGNKFTSSPGEKVFQVKVSAPEEQFTRVGVQVLDRKDGSFIVRYRMYASYKNLKVEIKFQGQHVAKSPYILKG	soluble
ETPAVQVSTNRQAIIINEQTQFKVDAALKNAGIQTDGMFVVDNSLKVRFKDTETQLKARDVIENTLGEGYITALNLLADSPEWMAKIKANPMFLGLDLRGGVHFTMQVDMKAAMQKTFERYSGDIRRELRREKIRSGTVRQAGNSLTVPLQDAGDVQKALPQLRKLFPEATLNSDGSNIVLTLSEEAVNKVCSDAVKQNITTLHNRVNELGVAEPVIQQSGADRIVVQLPGVQDTAKAKDIIGRTATLELRMVEDDPAKLREALEGNVPSGYELLSSGGDRPEILLISKQVELTGDNINDAQPSFDQMGAPAVSLSLDSAGGSIFGELTAANVGKRMAMVLIDQGKSEVVTAPVIRTAITGGRVEISGSMTTAEANDTSLLLRAGSLAAPMQIVEERTIGPSLGKENIEK	not soluble
ETTSSIGEKVWDDKDNQDGKRPEKVSVNLLANGEKVKTLDVTSETNWKYEFKDLPKYDEGKKIEYTVTEDHVKDYTTDINGTTITNKYTPGETSATVTKNWDDNNNQDGKRPTEIKVELYQDGKATGKTAILNESNNWTHTWTGLDEKAKGQQVKYTVEELTKVKGYTTHVDNNDMGNLITTNKYTPETTSSIGEKVWDDKDNQDGKRPEKVSVNLLANGEKVKTLDVTSETNWKYEFKDLPKYDEGKKIEYTVTEDHVKDYTTDINGTTITNKYTPGETSATVTKNWDDNNNQDGKRPTEIKVELYQDGKATGKTAILNESNNWTHTWTGLDEKAKGQQVKYTVEELTKVKGYTTHVDNNDMGNLITTNKYT	soluble
EVDPAKCVLQGEDLHRAREKQTASFTLLCKDAAGEIMGRGGDNVQVAVVPKDKKDSPVRTMVQDNKDGTYYISYTPKEPGVYTVWVCIKEQHVQGSPFTVTVRRKH	soluble
EVQLVESGGGLVQPGGSLRLSCAASGFTFSDYGIAWVRQAPGKGLEWVAFISDLAYTIYYADTVTGRFTISRDNSKNTLYLQMNSLRAEDTAVYYCARDNWDAMDYWGQGTLVTVSSASTKGPSVFPLAPSSKSTSGGTAALGCLVKDYFPEPVTVSWNSGALTSGVHTFPAVLQSSGLYSLSSVVTVPSSSLGTQTYICNVNHKPSNTKVDKKVEPKSCDKTHTC	soluble
FDKLGNSAAIQEMNREVEAAAKRTSPVFLTGEAGSPFETVARYFHKNGTPWVSPARVEYLIDMPMELLQKAEGGVLYVGDIAQYSRNIQTGITFIIGKAERCRVRVIASCSYAAGSDGISCEEKLAGLFSESVVRIPPLS	soluble
FEEHLKKKPLRERLLEIPELRTEGLRDCQVMAISNLEKSFKDYRPRALIQMATGSGKTYTAITFIYRLLKFADARKVLFLVDTKNLGEQAEQEFMAYVPNDDNRKFTELYNVQRLRSSYISSDSQVCISTIQRLYSILKGEDLDEKTEEENPAERGWQLKEPLPVVYNEKVPIEEFDFIVIDECHRSIY	not soluble
FEKMKKEVEEILYNLKKEGGKYHCILAFSGGKDSVLALKLLKEKFKLNPLCVMVDNKYMAKEAIENALNVTKHYQVDLMILNRDYTDLFEDAIKRGESPCRRCSRLILREVWRVTKLLGLKYIITGHELP	not soluble
FFFSGGVPLDASLFEHKKLDPTQVRQVLQLVLWKLESLRQWEKERITGCIQAVAEHLQLKLRDVMPLMFPAITGHASSVSVLDAMEILGADLSRYRLRQALELLGGASKKETKEWEKIRDAIPG	not soluble
FGLETVSENELAHSEEELRIILSESYKSGEINQSEFKYVNKIFEFDDRLAKEIMIPRTEIVSLPHDIKISEMMDIIQIEKYTRYPVEEGDKDNIIGVINIKEVLTACISGEVSVDSTISQFVNPIIHVIESAPIQDLLVKMQKERVHMAILSDEYGGTAGLVTVEDIIEEIVGEIR	soluble
FHHYKILDTNILIDGRIYDLAKTGFLEGTLLVPNFVLYELQYIADSSDSVKRVRGRRGLDILNKLQNEHIMPIEMYEGDFEDIPEVDSKLIALAKQNGGVIVTNDYNLNKVIQFQNVQVLNINSLANALKPRVI	not soluble
FKIETTPESRYLAQIGDSVSLTCSTTGCESPFFSWRTQIDSPLNGKVTNEGTTSTLTMNPVSFGNEHSYLCTATCESRKLEKGIQVEIYSFPKDPEIHLSGPLEAGKPITVKCSVADVYPFDRLEIDLLKGDHLMKSQEFLEDADRKSLETKSLEVTFTPVIEDIGKVLVCRAKLHIDEMDSVPTVRQAVKELQVYISPKNT	soluble
FLYSNTSYRTLYLAAILYKAKADIRIVHDHLNHTSLADLKFKKYVYNHFKTQGQVIYFICTKKIQKRLRMTADQCARVNLLSNIAD	soluble
